In PMC11062245:

Biological target: T1, melanopsin (mOPN4-Flag), on Per2:ELuc:TK:Mel cells (mouse) (UniProt Q9QXZ9)
T1 sequence: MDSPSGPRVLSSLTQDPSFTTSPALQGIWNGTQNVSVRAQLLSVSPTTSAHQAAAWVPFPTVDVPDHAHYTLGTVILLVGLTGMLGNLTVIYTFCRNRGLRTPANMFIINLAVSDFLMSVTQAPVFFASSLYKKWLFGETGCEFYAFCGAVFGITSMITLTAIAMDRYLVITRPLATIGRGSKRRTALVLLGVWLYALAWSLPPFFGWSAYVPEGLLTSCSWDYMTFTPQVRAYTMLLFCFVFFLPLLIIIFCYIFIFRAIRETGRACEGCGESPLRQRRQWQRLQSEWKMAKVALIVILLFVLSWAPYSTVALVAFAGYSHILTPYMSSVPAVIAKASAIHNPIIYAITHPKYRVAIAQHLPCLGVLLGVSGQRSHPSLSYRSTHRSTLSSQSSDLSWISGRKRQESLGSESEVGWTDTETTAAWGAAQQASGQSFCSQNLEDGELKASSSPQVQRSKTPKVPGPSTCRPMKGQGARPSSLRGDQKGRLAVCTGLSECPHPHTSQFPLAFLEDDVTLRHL
Test: cell binding fluorescence (microplate), EC50
Details: 6-FAM-Melapt (1.405-90 ug/mL) added to adherent cells in DMEM, 15 min, washed, fluorescence 495/517 nm, n=3, cells cultured at 37 C, 5% CO2, binding pH and …

“AAAGGGGAATTCGGATCCCCGCACACGTGGAGCCAAGTCGAGTTTAATTCCCTATCGCCTGCAGAAGCTTCCGTTT [6-FAM-Melapt04]” showed a K half of 5.62 µg/mL.
In the case of “AAAGGGGAATTCGGATCCTTCACCGATACGGCTCCCTTGGCCAGACAGGAAAAAATAACTGCAGAAGCTTCCGTTT [6-FAM-Melapt08]”, the K half (Results text gives 22.5 ug/mL, not saturated at 90 ug/mL) is reported as 45 µg/mL.
“AAAGGGGAATTCGGATCCCGACCCGAAGGAGCGGTGGATAACCCCACCAAGATACGTCCTGCAGAAGCTTCCGTTT [6-FAM-Melapt01]” was tested, and the K half was 11.2 µg/mL.
